Assay results from US20260242478A1 (published 2026).

How the values were obtained:
[1] = biological target: T1, Anti-CD28 Fab (SEQ ID NOs: 696, 697); test: phage ELISA on captured anti-CD28 Fab, wells pre-incubated with CD28 antigen as competitor;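 further: crude clonal phage supernatants added without washing, bound phage read out by HRP-coupled anti-M13 antibody, reference wells given blocking buffer only instead of CD28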
T1 construct: Biotinylated and captured on neutravidin coated plates in the phage ELISA
T1 sequence (VH, as listed by the source, chain 1 of 2): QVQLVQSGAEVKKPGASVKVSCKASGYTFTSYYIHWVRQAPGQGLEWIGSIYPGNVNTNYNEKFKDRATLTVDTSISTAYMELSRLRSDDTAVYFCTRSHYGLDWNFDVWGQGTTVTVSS
T1 sequence (VL, as listed by the source, chain 2 of 2): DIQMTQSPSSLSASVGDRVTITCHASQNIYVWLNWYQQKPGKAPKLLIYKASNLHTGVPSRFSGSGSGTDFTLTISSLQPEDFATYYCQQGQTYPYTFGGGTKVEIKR

[2] = biological target: T1, Anti-CD28 Fab (SEQ ID NOs: 696, 697); test: phage ELISA, clonal phage on biotinylated anti-CD28 Fab captured on neutravidin plates;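 further: crude clonal phage supernatants added to wells pretreated with CD28 antigen or with blocking buffer only, bound phage detected by HRP-linked anti-M13 antibody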
Description: (§1) After panning, phage infected bacteria were plated out and colonies picked into 96 well blocks. Clonal phage was then amplified and separated from bacterial cells via centrifugation.
(§2) Clonal phage were harvested as crude supematants and screened via standard ELISAs. […] Prior to the addition of clonal phage, wells were incubated with blocking buffer and CD28 antigen or blocking buffer alone. Without washing or aspirating, clonal phage supematants were then added to the wells and incubated for a short time. Wells were then washed followed by detection of bound phage using a horse radish conjugated anti-M13 antibody. Clonal phage of interest were then sent for sequence analysis.

[3] = biological target: T2, Anti-CD28 Fab (SEQ ID NOs: 696, 697); test: phage ELISA on captured anti-CD28 Fab, wells pre-incubated with CD28 antigen as competitor;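 further: crude clonal phage supernatants added without washing, bound phage read out by HRP-coupled anti-M13 antibody, reference wells given blocking buffer only instead of CD28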
T2 construct: In the phage ELISA the Fab was biotinylated and captured on neutravidin coated plates
T2 sequence (VH, as listed by the source, chain 1 of 2): as the sequence (VH, as listed by the source, chain 1 of 2) above
T2 sequence (VL, as listed by the source, chain 2 of 2): as the sequence (VL, as listed by the source, chain 2 of 2) above

[4] = biological target: T2, Anti-CD28 Fab (SEQ ID NOs: 696, 697); test: phage ELISA, clonal phage on biotinylated anti-CD28 Fab captured on neutravidin plates;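 further: crude clonal phage supernatants added to wells pretreated with CD28 antigen or with blocking buffer only, bound phage detected by HRP-linked anti-M13 antibody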
Description: as §1, §2

[5] = biological target: T3, Anti-CD28 Fab (SEQ ID NOs: 696, 697); test: phage ELISA; biotinylated anti-CD28 Fab on neutravidin plate, clonal phage supernatant, anti-M13 HRP detection;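 further: crude supernatants of single phage clones picked after panning were screened for binding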
T3 construct: In the phage ELISA the Fab was biotinylated and captured on neutravidin coated plates
T3 sequence (VH, as listed by the source, chain 1 of 2): as the sequence (VH, as listed by the source, chain 1 of 2) above
T3 sequence (VL, as listed by the source, chain 2 of 2): as the sequence (VL, as listed by the source, chain 2 of 2) above

[6] = biological target: T3, Anti-CD28 Fab (SEQ ID NOs: 696, 697); test: phage ELISA; captured anti-CD28 Fab pre-incubated with CD28 antigen as competitor, anti-M13 HRP detection;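 further: crude clonal phage supernatants screened by ELISA, with wells pre-incubated with CD28 antigen in blocking buffer, compared against wells given blocking buffer alone as control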
Description: as §1, §2

[7] = biological target: Anti-CD28 Fab (SEQ ID NOs: 696, 697); test: phage ELISA; Fab-coated wells pre-incubated with CD28 antigen as competitor, anti-M13 HRP detection;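 further: crude clonal phage supernatants screened by ELISA, comparing wells pre-treated with CD28 antigen in blocker against wells given blocker only, bound phage read via HRP-linked anti-M13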
Target sequence in this assay (VH, as listed by the source, chain 1 of 2): as the sequence (VH, as listed by the source, chain 1 of 2) above
Target sequence in this assay (VL, as listed by the source, chain 2 of 2): as the sequence (VL, as listed by the source, chain 2 of 2) above
Description: as §1, §2

[8] = biological target: Anti-CD28 Fab (SEQ ID NOs: 696, 697); test: phage ELISA; biotinylated anti-CD28 Fab on neutravidin plate, clonal phage supernatant, anti-M13 HRP detection;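 further: crude supernatants of single phage clones picked after panning were screened for binding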
Target sequence in this assay (VH, as listed by the source, chain 1 of 2): as the sequence (VH, as listed by the source, chain 1 of 2) above
Target sequence in this assay (VL, as listed by the source, chain 2 of 2): as the sequence (VL, as listed by the source, chain 2 of 2) above

[9] = biological target: T4, Anti-CD28 Fab (SEQ ID NOs: 696, 697); test: phage ELISA as above with wells pre-incubated with CD28 antigen as competitor
T4 construct: In the phage ELISA the Fab was biotinylated and captured on neutravidin coated plates
T4 sequence (VH, as listed by the source, chain 1 of 2): as the sequence (VH, as listed by the source, chain 1 of 2) above
T4 sequence (VL, as listed by the source, chain 2 of 2): as the sequence (VL, as listed by the source, chain 2 of 2) above
Description: as §1, §2

[10] = biological target: T4, Anti-CD28 Fab (SEQ ID NOs: 696, 697); test: phage ELISA; biotinylated anti-CD28 Fab on neutravidin plate, clonal phage supernatant, anti-M13 HRP detection; remark: listed apart in the source;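 further: crude supernatants of single phage clones picked after panning were screened for binding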

Binder: YCDGHSSVYMLKCL [Phage-1130]
- Anti-CD28 Fab signal in the presence of CD28 (phage binding ELISA) [1]: 0.06
- Anti-CD28 Fab signal (phage binding ELISA) [2]: 1.26

Binder: YCLGHSWPYIHKCY [Phage-1052]
- Anti-CD28 Fab signal in the presence of CD28 (phage binding ELISA) [3]: 0.07
- Anti-CD28 Fab signal (phage binding ELISA) [4]: 1.43

B1: Phage-1071 (peptide)
peptide: YCEGHHPWYVQKCL
notes: Clonal phage supernatant; not shown: fused to the pIII filament protein of the bacteriophage
- Anti-CD28 Fab signal (phage binding ELISA) [5]: 1.39
- Anti-CD28 Fab signal in the presence of CD28 (phage binding ELISA) [6]: 0.07

Binder: YCDGHSPAFIQKCL [Phage-1056]
- Anti-CD28 Fab signal in the presence of CD28 (phage binding ELISA) [3]: 0.08
- Anti-CD28 Fab signal (phage binding ELISA) [4]: 1.42

B2: Phage-1065 (peptide)
peptide: YCDGHSPEHMGKCL
notes: as for B1
- Anti-CD28 Fab signal (phage binding ELISA) [5]: 1.4
- Anti-CD28 Fab signal in the presence of CD28 (phage binding ELISA) [6]: 0.09

Binder: YCDGHSKEYMAKCL (Tested as clonal phage supernatant) [Phage-1096]
- Anti-CD28 Fab signal in the presence of CD28 (phage binding ELISA) [7]: 0.06
- Anti-CD28 Fab signal (phage binding ELISA) [8]: 1.34

Binder: YCEGHMEKYMEKCL (Tested as clonal phage supernatant) [Phage-1091]
- Anti-CD28 Fab signal in the presence of CD28 (phage binding ELISA) [7]: 0.11
- Anti-CD28 Fab signal (phage binding ELISA) [8]: 1.35

Binder: YCDGHSLEYIEKCL [Phage-1051]
- Anti-CD28 Fab signal in the presence of CD28 (phage binding ELISA) [3]: 0.06
- Anti-CD28 Fab signal (phage binding ELISA) [4]: 1.43

B3: Phage-1073 (peptide)
peptide: YCDGHAEQYMSKCL
notes: as for B1
- Anti-CD28 Fab signal (phage binding ELISA) [5]: 1.38
- Anti-CD28 Fab signal in the presence of CD28 (phage binding ELISA) [6]: 0.07

Binder: YCQGHSPNYITKCF [Phage-1058]
- Anti-CD28 Fab signal in the presence of CD28 (phage binding ELISA) [3]: 0.06
- Anti-CD28 Fab signal (phage binding ELISA) [4]: 1.41

Binder: YCAGLFEEYMSKCL [Phage-1135]
- Anti-CD28 Fab signal in the presence of CD28 (phage binding ELISA) [1]: 0.06
- Anti-CD28 Fab signal (phage binding ELISA) [2]: 1.25

Binder: YCDGHMVQYMAKCL (Tested as clonal phage supernatant) [Phage-1089]
- Anti-CD28 Fab signal in the presence of CD28 (phage binding ELISA) [7]: 0.07
- Anti-CD28 Fab signal (phage binding ELISA) [8]: 1.36

Binder: YCAGHVDQYLWKCL (Tested as clonal phage supernatant) [Phage-1099]
- Anti-CD28 Fab signal in the presence of CD28 (phage binding ELISA) [7]: 0.06
- Anti-CD28 Fab signal (phage binding ELISA) [8]: 1.34

Binder: YCEGHMSIYMQKCL [Phage-1133]
- Anti-CD28 Fab signal in the presence of CD28 (phage binding ELISA) [1]: 0.07
- Anti-CD28 Fab signal (phage binding ELISA) [2]: 1.25

Binder: YCDGHSHEYMQKCL [Phage-1061]
- Anti-CD28 Fab signal in the presence of CD28 (phage binding ELISA) [3]: 0.06
- Anti-CD28 Fab signal (phage binding ELISA) [4]: 1.41

Binder: YCEGHHRIYMQKCL [Phage-1131]
- Anti-CD28 Fab signal in the presence of CD28 (phage binding ELISA) [1]: 0.07
- Anti-CD28 Fab signal (phage binding ELISA) [2]: 1.26

Binder: YCDGHSEEFMWKCL (Tested as clonal phage supernatant) [Phage-1090]
- Anti-CD28 Fab signal in the presence of CD28 (phage binding ELISA) [7]: 0.06
- Anti-CD28 Fab signal (phage binding ELISA) [8]: 1.35

Binder: YCDGHSLEYIDKCM [Phage-1057]
- Anti-CD28 Fab signal in the presence of CD28 (phage binding ELISA) [3]: 0.09
- Anti-CD28 Fab signal (phage binding ELISA) [4]: 1.42

Binder: YCDGHLPRYMAKCL (Tested as clonal phage supernatant) [Phage-1092]
- Anti-CD28 Fab signal in the presence of CD28 (phage binding ELISA) [7]: 0.1
- Anti-CD28 Fab signal (phage binding ELISA) [8]: 1.35

B4: Phage-1067 (peptide)
peptide: YCDGHSPEYMQKCL
notes: as for B1
- Anti-CD28 Fab signal (phage binding ELISA) [5]: 1.4
- Anti-CD28 Fab signal in the presence of CD28 (phage binding ELISA) [6]: 0.53

B5: Phage-1063 (peptide)
peptide: YCDGHLMEYKAKCL
notes: as for B1
- Anti-CD28 Fab signal (phage binding ELISA) [5]: 1.41
- Anti-CD28 Fab signal in the presence of CD28 (phage binding ELISA) [6]: 0.06

Binder: YCDGHLDEYMLKCL [Phage-1053]
- Anti-CD28 Fab signal in the presence of CD28 (phage binding ELISA) [3]: 0.06
- Anti-CD28 Fab signal (phage binding ELISA) [4]: 1.43

B6: Phage-1068 (peptide)
peptide: YCNGHLPEYMSKCI
notes: as for B1
- Anti-CD28 Fab signal (phage binding ELISA) [5]: 1.4
- Anti-CD28 Fab signal in the presence of CD28 (phage binding ELISA) [6]: 0.07

Binder: YCDGHAPEYLGKCL [Phage-1059]
- Anti-CD28 Fab signal in the presence of CD28 (phage binding ELISA) [3]: 0.06
- Anti-CD28 Fab signal (phage binding ELISA) [4]: 1.41

Binder: YCDGHSEAYIEKCL (Tested as clonal phage supernatant) [Phage-1098]
- Anti-CD28 Fab signal in the presence of CD28 (phage binding ELISA) [7]: 0.06
- Anti-CD28 Fab signal (phage binding ELISA) [8]: 1.34

Binder: YCDGHNFQYMEKCL (Tested as clonal phage supernatant) [Phage-1048]
- Anti-CD28 Fab signal in the presence of CD28 (phage binding ELISA) [9]: 0.06
- Anti-CD28 Fab signal (phage binding ELISA) [10]: 1.44

Binder: YCDGHTPEYMWKCL [Phage-1054]
- Anti-CD28 Fab signal in the presence of CD28 (phage binding ELISA) [3]: 0.06
- Anti-CD28 Fab signal (phage binding ELISA) [4]: 1.43

B7: Phage-1072 (peptide)
peptide: YCDGHNWEYMEKCL
notes: as for B1
- Anti-CD28 Fab signal (phage binding ELISA) [5]: 1.38
- Anti-CD28 Fab signal in the presence of CD28 (phage binding ELISA) [6]: 0.05

Binder: YCVGHLPQYMQKCL [Phage-1049]
- Anti-CD28 Fab signal in the presence of CD28 (phage binding ELISA) [3]: 0.06
- Anti-CD28 Fab signal (phage binding ELISA) [4]: 1.43

Binder: YCEGHLQEHMAKCL [Phage-1134]
- Anti-CD28 Fab signal in the presence of CD28 (phage binding ELISA) [1]: 0.05
- Anti-CD28 Fab signal (phage binding ELISA) [2]: 1.25

B8: Phage-1064 (peptide)
peptide: YCEGHSAEYIAKCL
notes: as for B1
- Anti-CD28 Fab signal (phage binding ELISA) [5]: 1.41
- Anti-CD28 Fab signal in the presence of CD28 (phage binding ELISA) [6]: 0.09

B9: Phage-1074 (peptide)
peptide: YCDGLFQLYMMKCL
notes: as for B1
- Anti-CD28 Fab signal (phage binding ELISA) [5]: 1.38
- Anti-CD28 Fab signal in the presence of CD28 (phage binding ELISA) [6]: 0.07

Binder: YCDGHLPEYIAKCQ [Phage-1050]
- Anti-CD28 Fab signal in the presence of CD28 (phage binding ELISA) [3]: 0.07
- Anti-CD28 Fab signal (phage binding ELISA) [4]: 1.43

Binder: YCDGHAPLYIQKCL (Tested as clonal phage supernatant) [Phage-1095]
- Anti-CD28 Fab signal in the presence of CD28 (phage binding ELISA) [7]: 0.06
- Anti-CD28 Fab signal (phage binding ELISA) [8]: 1.34

Binder: YCAGHAEEYLEKCL [Phage-1060]
- Anti-CD28 Fab signal in the presence of CD28 (phage binding ELISA) [3]: 0.15
- Anti-CD28 Fab signal (phage binding ELISA) [4]: 1.41

Binder: YCEGHSPEYMHKCL (Tested as clonal phage supernatant) [Phage-1097]
- Anti-CD28 Fab signal in the presence of CD28 (phage binding ELISA) [7]: 0.09
- Anti-CD28 Fab signal (phage binding ELISA) [8]: 1.34

Binder: YCDGHAPQYMRKCL (Tested as clonal phage supernatant) [Phage-1101]
- Anti-CD28 Fab signal in the presence of CD28 (phage binding ELISA) [7]: 0.08
- Anti-CD28 Fab signal (phage binding ELISA) [8]: 1.33

Binder: YCEGHSEEYMAKCL [Phage-1132]
- Anti-CD28 Fab signal in the presence of CD28 (phage binding ELISA) [1]: 0.07
- Anti-CD28 Fab signal (phage binding ELISA) [2]: 1.26

B10: Phage-1069 (peptide)
peptide: YCSGHLPEYMDKCL
notes: as for B1
- Anti-CD28 Fab signal (phage binding ELISA) [5]: 1.39
- Anti-CD28 Fab signal in the presence of CD28 (phage binding ELISA) [6]: 0.07

Binder: YCEGHSQQYMQKCL [Phage-1055]
- Anti-CD28 Fab signal in the presence of CD28 (phage binding ELISA) [3]: 0.08
- Anti-CD28 Fab signal (phage binding ELISA) [4]: 1.42

Binder: YCAGHASEYMAKCL (Tested as clonal phage supernatant) [Phage-1100]
- Anti-CD28 Fab signal in the presence of CD28 (phage binding ELISA) [7]: 0.08
- Anti-CD28 Fab signal (phage binding ELISA) [8]: 1.33

Binder: YCDGHLLQYMHKCL (Tested as clonal phage supernatant) [Phage-1094]
- Anti-CD28 Fab signal in the presence of CD28 (phage binding ELISA) [7]: 0.07
- Anti-CD28 Fab signal (phage binding ELISA) [8]: 1.35

Binder: YCDGHLPEYMQKCL (Tested as clonal phage supernatant) [Phage-1093]
- Anti-CD28 Fab signal in the presence of CD28 (phage binding ELISA) [7]: 0.08
- Anti-CD28 Fab signal (phage binding ELISA) [8]: 1.35

B11: Phage-1070 (peptide)
peptide: YCDGHSLEYMLKCL
notes: as for B1
- Anti-CD28 Fab signal (phage binding ELISA) [5]: 1.39
- Anti-CD28 Fab signal in the presence of CD28 (phage binding ELISA) [6]: 0.07

B12: Phage-1066 (peptide)
peptide: YCDGHDARYMEKCL
notes: as for B1
- Anti-CD28 Fab signal (phage binding ELISA) [5]: 1.4
- Anti-CD28 Fab signal in the presence of CD28 (phage binding ELISA) [6]: 0.06

B13: Phage-1062 (peptide)
peptide: YCAGHSAEYMSKCL
notes: as for B1
- Anti-CD28 Fab signal (phage binding ELISA) [5]: 1.41
- Anti-CD28 Fab signal in the presence of CD28 (phage binding ELISA) [6]: 0.07
